Test results taken from US20200023070A1, “CONJUGATES COMPRISING AN GLP-1/GLUCAGON/GIP TRIPLE RECEPTOR AGONIST, A LINKER AND HYALURONIC ACID” (SANOFI, priority 2018, published 2020).
Starred links: 1 amine or outer side, 2 acyl side, 3 side chain; linkers in the order of their positions; H or OH if unused. Non-standard residues stand in square brackets, D forms with d. Groups on a side chain read outwards from the residue. No end group written: not given here. *: point of attachment. γGlu = O=C(O)[C@H](CCC(=O)[*:2])N[*:1]; Palmitoyl = CCCCCCCCCCCCCCCC(=O)*; Aib = CC(C)(N)C(=O)O

T1: human GIP receptor (human, UniProt P48546 22-466)
T1 sequence (looked up): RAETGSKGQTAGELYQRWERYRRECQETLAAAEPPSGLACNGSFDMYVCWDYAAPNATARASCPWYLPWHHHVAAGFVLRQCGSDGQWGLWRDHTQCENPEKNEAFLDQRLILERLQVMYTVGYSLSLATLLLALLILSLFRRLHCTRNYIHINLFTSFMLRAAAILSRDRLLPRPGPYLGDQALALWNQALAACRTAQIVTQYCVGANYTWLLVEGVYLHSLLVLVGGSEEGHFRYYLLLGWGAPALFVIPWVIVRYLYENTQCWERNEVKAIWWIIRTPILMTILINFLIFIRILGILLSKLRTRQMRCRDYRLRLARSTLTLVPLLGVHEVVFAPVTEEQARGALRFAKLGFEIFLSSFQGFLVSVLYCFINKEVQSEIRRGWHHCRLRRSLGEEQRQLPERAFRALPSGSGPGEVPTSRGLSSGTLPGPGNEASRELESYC

B1: Peptide of SEQ ID NO: 6 (GLP-1/Glucagon/GIP triple receptor agonist, exendin-4 derivative) (peptide)
peptide: H[Aib]HGTFTSDLSKLK([γGlu-γGlu-Palmitoyl])EEQRQKEFIEWLKAGGHPS[Aib]KPPPK-NH2
modifications: N-terminus assumed
SMILES: CCCCCCCCCCCCCCCC(=O)N[C@@H](CCC(=O)N[C@@H](CCC(=O)NCCCC[C@H](NC(=O)[C@H](CC(C)C)NC(=O)[C@H](CCCCN)NC(=O)[C@H](CO)NC(=O)[C@H](CC(C)C)NC(=O)[C@H](CC(=O)O)NC(=O)[C@H](CO)NC(=O)[C@@H](NC(=O)[C@H](Cc1ccccc1)NC(=O)[C@@H](NC(=O)CNC(=O)[C@H](Cc1c[nH]cn1)NC(=O)C(C)(C)NC(=O)[C@@H](N)Cc1c[nH]cn1)[C@@H](C)O)[C@@H](C)O)C(=O)N[C@@H](CCC(=O)O)C(=O)N[C@@H](CCC(=O)O)C(=O)N[C@@H](CCC(N)=O)C(=O)N[C@@H](CCCNC(=N)N)C(=O)N[C@@H](CCC(N)=O)C(=O)N[C@@H](CCCCN)C(=O)N[C@@H](CCC(=O)O)C(=O)N[C@@H](Cc1ccccc1)C(=O)N[C@H](C(=O)N[C@@H](CCC(=O)O)C(=O)N[C@@H](Cc1c[nH]c2ccccc12)C(=O)N[C@@H](CC(C)C)C(=O)N[C@@H](CCCCN)C(=O)N[C@@H](C)C(=O)NCC(=O)NCC(=O)N[C@@H](Cc1c[nH]cn1)C(=O)N1CCC[C@H]1C(=O)N[C@@H](CO)C(=O)NC(C)(C)C(=O)N[C@@H](CCCCN)C(=O)N1CCC[C@H]1C(=O)N1CCC[C@H]1C(=O)N1CCC[C@H]1C(=O)N[C@@H](CCCCN)C(N)=O)[C@@H](C)CC)C(=O)O)C(=O)O
B2: Peptide of SEQ ID NO: 7 (GLP-1/Glucagon/GIP triple receptor agonist, exendin-4 derivative) (peptide)
peptide: H[Aib]HGTFTSDLSKLK([γGlu-γGlu-Palmitoyl])EEQRQ[Aib]EFIEWLKA[dA]GPPS[Aib]KPPPK-NH2
modifications: N-terminus assumed
SMILES: CCCCCCCCCCCCCCCC(=O)N[C@@H](CCC(=O)N[C@@H](CCC(=O)NCCCC[C@H](NC(=O)[C@H](CC(C)C)NC(=O)[C@H](CCCCN)NC(=O)[C@H](CO)NC(=O)[C@H](CC(C)C)NC(=O)[C@H](CC(=O)O)NC(=O)[C@H](CO)NC(=O)[C@@H](NC(=O)[C@H](Cc1ccccc1)NC(=O)[C@@H](NC(=O)CNC(=O)[C@H](Cc1c[nH]cn1)NC(=O)C(C)(C)NC(=O)[C@@H](N)Cc1c[nH]cn1)[C@@H](C)O)[C@@H](C)O)C(=O)N[C@@H](CCC(=O)O)C(=O)N[C@@H](CCC(=O)O)C(=O)N[C@@H](CCC(N)=O)C(=O)N[C@@H](CCCNC(=N)N)C(=O)N[C@@H](CCC(N)=O)C(=O)NC(C)(C)C(=O)N[C@@H](CCC(=O)O)C(=O)N[C@@H](Cc1ccccc1)C(=O)N[C@H](C(=O)N[C@@H](CCC(=O)O)C(=O)N[C@@H](Cc1c[nH]c2ccccc12)C(=O)N[C@@H](CC(C)C)C(=O)N[C@@H](CCCCN)C(=O)N[C@@H](C)C(=O)N[C@H](C)C(=O)NCC(=O)N1CCC[C@H]1C(=O)N1CCC[C@H]1C(=O)N[C@@H](CO)C(=O)NC(C)(C)C(=O)N[C@@H](CCCCN)C(=O)N1CCC[C@H]1C(=O)N1CCC[C@H]1C(=O)N1CCC[C@H]1C(=O)N[C@@H](CCCCN)C(N)=O)[C@@H](C)CC)C(=O)O)C(=O)O

Assays:
[1] = Pharmacokinetics in female Göttingen minipigs; format: in vivo; settings: for half-life in plasma: after subcutaneous administration
Procedure: 6 female Göttingen minipigs of average 30000 g weight were used in this study.
Animals had access to food and water ad libitum throughout the entire study period. The animals were dosed with 0.23 mg/kg of a 17.6% suspension of HA-Aib-linker-Seq ID. No.7. Plasma samples were taken at 0, 1, 4, 8, 24, 48, 72, 96, 144, 192, 264, 312, 360, 432, 480 and 528 h. Samples were analysed for the peptide. All quantitative results were determined by LC-MS/MS. For calculation of mean concentrations, values below the lower limit of quantification (LLOQ=0.5 ng/mL in plasma) were set to zero. The pharmacokinetic parameters were calculated by the program WinNonlin 6.4 using a non-compartmental model and linear trapezoidal interpolation calculation.

[2] = Injectability study (load on pre-filled syringe); format: physicochemical; settings: 20 mg/mL suspension, 13.5% peptide load, 1 mL BD Neopak PFS, needle 27G×½″ TW, 3.2 mm/s
Procedure: A suspension of HA-peptide conjugate with Seq. ID No. 7 (20 mg/mL in 20 mM acetate buffer, 7.6 mg/mL NaCl, 4 mg/mL soluble (non crosslinked) hyaluronic acid 700 kD, pH 4.8) was manually filled into 1 mL long BD Neopak glass pre-filled syringes (PFS), 600 μL each, and afterwards closed via vacuum stoppering. The filled PFS were loaded into the syringe holder of the equipment and the injection speed was adjusted to […] which equals 3.2 mm/s for the BD Neopak PFS.

[3] = Pharmacokinetics in female SD rats; format: in vivo, Sprague-Dawley rats
Procedure: 5 female Sprague-Dawley rats were used in this study. Animals had access to food and water ad libitum throughout the entire study period. The animals were dosed with 1.01 mg/kg (peptide content) of a suspension of the conjugate of Seq ID. No.7. Plasma samples were taken at 4, 24, 48, 72, 144, 192, 240 and 336 h. Samples were analysed for the peptide. All quantitative results were determined by LC-MS/MS. For calculation of mean concentrations, values below the lower limit of quantification (LLOQ=2.5 ng/mL in plasma) were set to zero. The pharmacokinetic parameters were calculated by the program WinNonlin 6.4 using a non-compartmental model and linear trapezoidal interpolation calculation.

[4] = test system: female diet-induced obese (DIO) C57BL/6N mice; test: Body mass after subcutaneous treatment in female diet-induced obese mice; format: in vivo, mouse; settings: for mean body weight reduction by day 23 versus the body weight at day 0: days 1, 8, 15, 22, female DIO mice
Procedure: Female C57BL/6N Cr1 mice were used for this study.
Mice were group housed under vivarium conditions that included a 12 h light/dark cycle, room temperatures—of 23±1° C. and a relative humidity between 30-70%. All animals had free access to water and diet (Ssniff adjusted high fat diet: TD.97366) for 18 weeks prior to pharmacological intervention (dosing phase). After pre-feeding period, mice were stratified for body weight to treatment groups with n=8, so that each group has similar mean body weight. At the study start mice were between 25-26 weeks old.
Mice were treated in the morning on days 1, 8, 15 and 22 between 8:00 and 9:00 AM with a s.c. injection of cross-linked hyaluronic acid (“vehicle”) or 100 and 200 nmol/kg/week conjugate (based on peptide content) of SEQ ID NO: 7 using a 30 G needle.
Body weight and food consumption were measured daily throughout the dosing phase. The study was terminated on day 23.
For statistical analyses a One-Way Analysis of Variance (ANOVA) was performed with SigmaStat 3.5. The power of the performed test was alpha=0.050:0.999 and a comparison versus the high fat diet-Vehicle group was performed with Dunnett's Method.

human GIP receptor = biological target: T1, human GIP receptor; test: cell-based or functional assay
human glucagon receptor = human glucagon receptor (human, UniProt P47871 26-477); test: cell-based or functional assay
Sequence of human glucagon receptor (P47871 26-477): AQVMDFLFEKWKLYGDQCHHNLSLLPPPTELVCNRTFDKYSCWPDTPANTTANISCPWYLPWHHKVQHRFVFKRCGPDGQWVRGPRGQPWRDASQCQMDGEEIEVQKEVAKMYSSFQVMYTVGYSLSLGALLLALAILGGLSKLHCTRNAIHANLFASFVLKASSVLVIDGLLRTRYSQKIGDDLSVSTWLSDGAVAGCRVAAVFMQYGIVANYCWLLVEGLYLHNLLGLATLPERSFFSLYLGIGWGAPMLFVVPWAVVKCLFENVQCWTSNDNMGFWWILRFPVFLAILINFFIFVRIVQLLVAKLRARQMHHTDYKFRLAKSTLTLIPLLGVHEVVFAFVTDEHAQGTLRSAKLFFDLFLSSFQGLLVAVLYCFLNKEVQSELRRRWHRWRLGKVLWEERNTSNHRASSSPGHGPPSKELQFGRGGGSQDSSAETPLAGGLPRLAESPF

human GLP-1 receptor = human GLP-1 receptor (human, UniProt P43220 24-463); test: cell-based or functional assay
[5] = peptide Seq. NO: 7 in plasma, single s.c. 0.23 mg/kg of 17.6% conjugate (0.04 mg/kg peptide)
[6] = peptide Seq. No. 7 in plasma, single s.c. 1.01 mg/kg (peptide content) conjugate suspension

Molecule | half-life in plasma [1] | half-life in plasma ([1]; same value as in h) | AUClast [1, 5] | Cmax [1, 5] | tlast [1, 5] | tmax [1, 5] | average load [2] | maximum load [2] | half-life in plasma ([3]; after subcutaneous administration, 1.01 mg/kg (peptide content)) | AUClast [3, 6] | Cmax [3, 6] | tlast [3, 6] | tmax [3, 6] | mean body weight reduction by day 23 versus the body weight at day 0 ([4]; 100 nmol/kg/w s.c. (based on peptide content)) | mean body weight reduction by day 23 versus the body weight at day 0 ([4]; 200 nmol/kg/w s.c. (based on peptide content)) | body weight effect of the first administration ([4]; both doses (100 and 200 nmol/kg/week s.c.), p<0.05 vs high-fat diet vehicle) | EC50 hGlP R (cAMP response, HTRF, HEK-293 cells) (human GIP receptor) | EC50 hGlucagon R (cAMP response, HTRF, HEK-293 cells) (human glucagon receptor) | EC50 hGLP-1R (cAMP response, HTRF, HEK-293 cells) (human GLP-1 receptor)
conjugate of SEQ ID NO: 7: Divinylsulfone-crosslinked hyaluronic acid hydrogel carrying peptide Seq. ID No. 7 via Aib-linker (thiol-maleimide conjugation) (H[Aib]HGTFTSDLSKLK([γGlu-γGlu-Palmitoyl])EEQRQ[Aib]EFIEWLKA[dA]GPPS[Aib]KPPPK-NH2; also: conjugated to divinylsulfone-crosslinked hyaluronic acid hydrogel via Aib-linker (thiol-maleimide), site not given here) | around 139 h | 139 h | 897 ng·h/mL | 4.96 ng/mL | 344 h | 100 h | 6.5 N | 7.6 N | around 3 days | 1810 ng·h/mL | 14.0 ng/mL | 221 h | 48.0 h | ~17.7±1.3% | ~19.5±1.4% | significant body weight-reducing effect that lasted until day 8 |  |  | 
B1 |  |  |  |  |  |  |  |  |  |  |  |  |  |  |  |  | 2.1 pM | 2.3 pM | 1.4 pM
B2 |  |  |  |  |  |  |  |  |  |  |  |  |  |  |  |  | 1.5 pM | 2.1 pM | 2.9 pM
